Here are results for 17 sequences from the DeepSol protein solubility set.

This data set can be described thus: soluble on expression in E. coli; label from the status in PepcDB or PDB records.
Turning to “MIKATDRKLVVGLEIGTAKVAALVGEVLPDGMVNIIGVGSCPSRGMDKGGVNDLESVVKCVQRAIDQAELMADCQISSVYLALSGKHISCQNEIGMVPISEEEVTQEDVENVVHTAKSVRVRDEHRVLHVIPQEYAIDYQEGIKNPVGLSGVRMQAKVHLITCHNDMAKNIVKAVERCGLKVDQLIFAGLAASYSVLTEDERELGVCVVDIGGGTMDIAVYTGGALRHTKVIPYAGNVVTSDIAYAFGTPPSDAEAIKVRHGCALGSIVGKDESVEVPSVGGRPPRSLQRQTLAEVIEPRYTELLNLVNEEILQLQEQLRQQGVKHHLAAGIVLTGGAAQIEGLAACAQRVFHTQVRIGAPLNITGLTDYAQEPYYSTAVGLLHYGKESHLNGEAEVEKRVTASVGSWIKRLNSWLRKEF”, the “soluble on expression in E. coli” value is listed as “not soluble”.
The same measure for “MPPFKRTKIVATLGPATDDKEVIRALAEAGADVFRLNFSHGAPEDHRRRVGWVREVAEELGRTLAVLQDLQGPKIRVGRFREGQVLLRPGQRFVLTAEPVEGDEHRVSVSYKGLPEDVSPGQILLLDDGRIRLKVLEVRSPEILTEVEVGGVLSNNKGINIPGADLSIPALSEKDIQDLALGAELGVDWVAVSFVRTRDDLLLARHYLSRYGSKARLMAKIEKPSAVARFEEILEEADGIMVARGDLGVEMPLEEVPIVQKRLILRCIAAGKPVITATQMLESMVQNPSPTRAEASDVANAIFDGTDAVMLSAETAAGAYPVEAVAMMARIAKAVESSPEFLQKLNVLRPAPTPTTQDAIAQAADDVVEAVGARAIVVFTATGGSARRIARTRPQVPILALTPNPEVRNQLALVWGVYPHLAPDPQDTDDMVRIALREVKALGLAQVGDRVVIAAGVPFGVRGTTNLIRVERVG”: “soluble”; for “MAKLENPILMAKIGGAQGLRGEVRVSTYTDDPMALGDYGNLVTADGRVFEILEVREGKNVVVVRFRGINDRNAAESLNGLELFIERDNLPDDELDDDEFYYADLEGLEAVDAEGKSYGAVSAVYDFGAGDLLELKGAGRRPALIPFSEAAVLEIDLEAGRILIDPMAAGLIDNPDDKDQNGMSPFGKKLEHHHHHH”: “not soluble”.
On to “MGSDKIHHHHHHMGNFHTMLDALLEDQEEAVLATIVQVEGSAYRKAGASMLFKKKGRRIGLLSGGCVEEDVFQRISALGDQLTSTLIPYDMRSEDDLSWGMGAGCNGIIHVHAERITQEKRRHYEKVRDCLHSGKAVTSVIKIESSHYLFLTENGHFGNWPDAPLQDIQRTVSTLHLPHFDQTTNMFIQRIEPKPRLILFGAGPDNVPLANLAADTGFSVIVTDWRPAYCTSSLFPYAYYLITAFPEQMLSEFQFFPHDAAVVATHHYQHDQTIINFLFSQNLHYIGLLGSANRTKRLLSGKHPPSHFYSPVGLKIGAEGPEEIAVSVVAEIIQTRKRVAVV”, for which the “soluble on expression in E. coli” value was “not soluble”.
The same measure for “MSLTWFDLVTPKSVMFFKPFIEELKRRDREVLVTAREGEGYSEVVELLNLYKIPFFNRGGFGGAKLCDKLKASIHRQLELMEFIEQHSIKRLVCLCSVDANRVAFGLGIPIVNFYDIPLSDYKTDFRRALPQARLTLPLSNKAFRPFMVPEEIFFRFGLEHDQIFEYGFLDVVAWLRDFQPSREFYEKVLKDYGLDTSLPTIVVREEEYKASYVMKKYPILYEGLKVLKERLRANILVIPRYEPEAVAELLPFAKVLKEKIVIQHILAYCDLFIGGGGTLNSEACFFGTPTISTRSFVSHYDKFLMDLALMDKVDSIEELIIKAERIIGNRNGYAKQIFDRMEFDVGSMVDEILKEKEGAEGHHHHHH”: “soluble”; for “MAHDLARGDKSDLRDKVVKPITNNVSVLVMGVDESDVRGKEYGDAIRTDALLLATFNKDSKTVKLLSIPRDTYTYIPVEKKKDKITHAHAYGSTKNGKDGGPQASIDAVEKLLNVPVDYFVKFNFKSFMKIVDDLGGIEVDVPVEFTEQDSNDNADAIHLKKGVQKLNSEEALALARTRHIDSDAMRGQRQQLVIEAILKKLTSVGSVTKVGNIIDDINGQFVTNLTFDDMLSFYKYGSDSEIEKLQIQGEDCYMAKGLEHHHHHH”: “soluble”.
As for “MNTNREPRFHDKVQAACYALMLDEHGVPADTGTLLYTKNAAVDRSEASGDLSPAKEFSIGRGFLEFVVRERNHLAALEASDGPPTGYEADAKCDYCFEQDTCMVVSGRLDQESKAGRIGDPVPAEERAYFDELYDAIEAERGAIHDEYRKLWEQSPDERAADDRAVVGLSPAEQTELPDGRWRLTATRPGSAASKIREGDRVLASDGDPVAGRAEMARVERLDADRVEVTTDEPVSLCRLDVYPSELEHHHHHH”, the “soluble on expression in E. coli” value is listed as “soluble”.
Regarding “MAKRKLTQNQTRRIQSNNAKTLHRHKKKEIEWSDEMLGESQEGVVVTRYSIHADVENEQGEIYRCNLRRTLSSLVVGDKVVWRKGNEQLQGVSGVIEAIHPRENEISRPDYYDGLKPIAANIDRIIIVSAVLPTLSLNIIDRYLVVCEIAGITPLIVLNKVDLLAQEQRQEIEDQLKIYQDIGYEILMISAKSGENMEKLTALLAQGTAIFVGQSGVGKSSLINHILPSVNAQVGDVSETSGLGQHTTTSSRLYHLPQGGNLIDSPGIREFGLWHLDAEQITKGYREFQYVLGTCKFRDCKHLSDPGCALREAVEQGKISPVRYDNYHRLIESLSETKSQRHFSLV”, the “soluble on expression in E. coli” value was “not soluble”.
As to “MAHHHHHHMSASLKKTALHLFHLAQQAKMDAFAGYHMPISYGRLGVLKEHLYTREVAGIFDVSHVGQYEVRGADRERFLEHVTPVDLQRIRAGHGALTMLTNAQGGIKDDCIVTKMADHLFLVLNAGCKEKDVAHMESVLRESAMKGADVQLVPLDRSLIALQGPQAAAILSEFMDDVPGMGFMQCRQRVNIKGMEVQVTRCGYTGEDGFELSVSNTDIVALVELLMSRKAEMIGLGARDSLRLEAGLNLYGHELTEDINPVAARFMWVISKRRMAEGGFIGYEPIKYLRDNASKGAVPRLRVGLVSTGPVAREKTVIEVGGKPVGEVTSGCPSPCLKKNIAIGYLDRELAKDGVKVDLVVRGRRVAAVVVTPPFVPARYYRKPK”, the “soluble on expression in E. coli” value was “not soluble”.
For the sequence “MGSDKIHHHHHHQAIAPAPADPAAALMPSPWSGSSGELGYASAHGNSTTDSLNGRIRLRYTDGDWIHSLDATALRSSSEYTNTNDDGSVTRERQTTAERYTGSAGSALQLGEHRQLTATGRYEHDDFATYDRLATFGIGYGTRLIDADRFYLDAQIGPGIRRAHNSDDDRNETGLIGRGLFDLKYTVTDNTDLINTLLVESGEYNTYAQNDFGVQVSMNSHFALKAAWQMRHNSDVSEGDKKTDTLTTVNLVYTFK”, the “soluble on expression in E. coli” value is “not soluble”.
Regarding “MSKKIKVGIVGATGYTGVELLRLLAAHPDVEVAAVTSRSEAGTAVADYFPSLRGVYGLAFQTPDEAGLEQCDIVFFATPNGIAMKDAPRLIEQGVRVIDLSADFRIRDIPTWEHWYGMTHAAPDLVSQAVYGLSELNREAVAQARLVANPGCYPTCVSLPLVPLLRQCRLKPGMPLIADCKSGVSGAGRKGNVGSLLCEAGDNFKAYGIAGHRHLPEIRQTIAGLQDGIAEGFVFTPHLAPMIRGMHATVYLHLSDGSDPETVLRDYYRDSPFVDILPTGSAPETRSVRGANLCRISIQQAAQSDVWVVLSVIDNLVKGAAGQAVQNMNIMFGLEETHGLDAIPLLP”, the “soluble on expression in E. coli” value was “not soluble”.
For “MDGNDINIQKNEFSRDQSALLMMDQHSDHKNHESAIGEPGMSYTASQPALSSTEHQTPLVSEASVAAPQNHLNGNSHESVSEMDRNSVDFAIESVLMKARAYNKMGAPKDPRRKQHNPKSEPKIEPHVTDSSDNQAAMSNKMEAEAPKMESNQNYVSNGSEPPFRFVSISNFDEMKTKKKEVQEELKLEVDSDSEEDDVPEQKTPKESDRCGGCGKFTHEDDLIALEEEKKKEKEKPLMSKKKSHHHKKNDFQWIGCDSCQTWYHFLCSGLEQFEYYLYEKFFCPKCVPHTGHSIRYKVVAPHRYRWYSPNEKHLGIEVGSKTWIEDFITRENTVPSPTDDEVCIVEDGYEFRREFEKLGGADNWGKVFMVKDMDGLNMTMPKPGFDLEDVVKIMGSDYEVDTIDVYNQSTYSMKLDTFRKLFRDTKNRPLLYNFLSLEFSDNNEMKEIAKPPRFVQEISMVNRLWPDVSGAEYIKLLQREEYLPEDQRPKVEQFCLAGMAGSYTDFHVDFGGSSVYYHILKGEKIFYIAAPTEQNFAAYQAHETSPDTTTWFGDIANGAVKRVVIKEGQTLLIPAGWIHAVLTPVDSLVFGGNFLHLGNLEMQMRVYHLENAIRKEIRSEEKFYFPNFELLHWMYMRNVLLEKITEANQEGSDMREQEKNIWTASQIMKAEMERWMDRELRLGPEKNAILPTDDKNKIMISVRKQIEIQTKIQNAKNKPMGLKQKRKSRESAERDDEDYCPSSSTAYKKKYTKKAKKDNDDAPKVKKAKKEEVPEEKVPVPEAAGPSEVTAPLTIKIGMGPTEDQKGVVQIFNNQCTSSGRKVKLNQNVADYCGSHLEARVEEIPEKATKSFRELDNELERCEAVHSGEKIKKVKEPKPPKQPKEKKEKPPPKKKEMSSRDRLMKKLKM”, the “soluble on expression in E. coli” value is recorded as “not soluble”.
Regarding “MAHHHHHHMPSSSPLLGPVFEVITPRLWVRYLQRYLDVPELLTLSETCWTFFVRCNEEPLWRELCLRPPYIDVQQKLGLFTFRGSWKYTVCAYRAEGAGADRQSSRSSTVVLAQSRSIADASLRFNVLLPRIVSCLQVSGEMSSDDGAAWMSQLRSPCAAGTGAASEVSVGLDNGRDEGAAEATVGAEMSVGAWQENVLGKPYAPTLAVKYLSLSAGAINYFMRDGTFLRPPLHALRQPQHRLVRPHTEFTDYNWYGTCLLDLVPLPQWCTNAQFFATLRWKTSGNTRRLQCCGHATAALDDTGGVRGPSHLPDELRGVPGVVDRRYRLSVDAFQREYEVPNMPVVLTGCIEDWPARDTWQDIHFFHCFASEALRANGRTADGRRFRMSAADYLAYEVATNAEKPMYVFDKAALQRSTALRADYAIPPYFTEDFFSYMTEEDRPDYRWLLVGPDGSGSPFHTDPHGTCAWNAVLSGCKRVTLYPPHVVPPGVEEEWIHSDYYASEPCLRWYRTRGDSMPSGSAVCGTFSKEHAGEAYHGSARELPPVEALVFPGDLVFIPSGWWHQVLNIGHTVAVTHNLCSPLTFPRVVADMNAYADRTVRKRFQCALRRAGRDELAVQLRVPGAKRGVYAGHLL”, the “soluble on expression in E. coli” value is listed as “not soluble”.
For “HHMKLYIMPGACSLADHILLRWSGSSFDLQFLDHQSMKAPEYLALNPSGAVPALQVGDWVLTQNAAILNYITDIAPAERGLSGDGSLKARAEINRWIAFSNSDVHPMYWALFGGTAYLQDPQMIARSQDNARQKLRVLYQRADAHLKHHNWLANGQRSGADAYLYVTLRWAKKVGVDLSSLDALSAFFERMEADPGVQAALQAEGLI”, the “soluble on expression in E. coli” value is “soluble”.
Take “LGNEDFNSVIQQMAQGRQIEYIDIERPSTGGLGFSVVALRSQNLGKVDIFVKDVQPGSVADRDQRLKENDQILAINHTPLDQNISHQQAIALLQQTTGSLRLIVAREPVHTKSST”: the “soluble on expression in E. coli” value is reported as “soluble”.
With “MGSDKIHHHHHHMNQNLSSYWIFYTVANAGNISKAAKELYISQPAISKSIQKLEDGLECKLFSRSSRGVVLTDEGRLLYDHVSEAFEALNEGEEKLKRSIELGVGQLKIGVSSTLCKYMLLPYLKEFIHRNPHISISIECQSTNETLKLLDDDKIDIGLIGKPASLKTFNFYYLDNIEDIFVTTKDYLRNLSARGVKKSEILQNSTLMLLDKGNMTRKYIDDYLQENQIHVKDSIDISNMDLLIDFAKIGVGVACVIKSIVSKELADGTLIEIPLGIPIHKREVGFAYKESSKLSTSLQTFIKFYESYTPEDF”, the “soluble on expression in E. coli” value is on record as “not soluble”.
As to “ETDKKGENAPDTKRIKETLEKFSLENMRYVGILKSGQKVSGFIEAEGYVYTVGVGNYLGQNYGRIESITDDSIVLNELIEDSTGNWVSRKAELLLNSSDKNTEQAAAPAAEQN”, the “soluble on expression in E. coli” value was “soluble”.
